From patent US8470548 (INTRA CELLULAR THERAPIES, dated 2013)

Legend:
[1] = biological target: T1, third intracellular loop of the rat 5-HT1B receptor (amino acids 226-311), GAL4 DNA-binding domain fusion … (rat, UniProt P04386 1-147; P28564 226-311); experiment: yeast two-hybrid, co-transformation of p11 prey and bait, -LWH medium and X-gal overlay
T1 construct: Yeast two-hybrid bait in a pAS2-derived vector; also called 5-HT1B receptor-bait; 5-HT1B receptors

[2] = biological target: T2, third intracellular loop of the 5-HT1A receptor (amino acids 218-345), bait construct (rat, UniProt P04386 1-147; P19327 218-345); experiment: yeast two-hybrid, growth on -LWH medium and X-gal overlay
T2 construct: Yeast two-hybrid bait in the pAS2-derived vector

[3] = biological target: bait control vector (empty plasmid) (UniProt P04386 1-147); experiment: as above
[4] = biological target: T3, third intracellular loop of the 5-HT6 receptor (amino acids 209-265), bait construct (rat, UniProt P04386 1-147; P31388 209-265); experiment: as above
T3 construct: Yeast two-hybrid bait in the pAS2-derived vector

- binding result [1]: binds
- binding result [2]: no binding
- binding result [3]: no binding
- binding result [4]: no binding
B1: p11 (rat; prey clone from the pACT2 rat brain cDNA library) (other, UniProt P05943 1-95, looked up)
chain: MPSQMEHAMETMMLTFHRFAGEKNYLTKEDLRVLMEREFPGFLENQKDPLAVDKIMKDLDQCRDGKVGFQSFLSLVAGLIIACNDYFVVHMKQKK
notes: Yeast two-hybrid prey; identified by BLAST search of the prey inserts; also called p11 prey; annexin-II light chain; not shown: fusion partner encoded by the pACT2 prey vector
